Source: patent US20040248211A1 (published 2004)

B1: ICAM-R domain 1 peptide NGSQI, residues 72-76 (peptide)
peptide: NGSQI
notes: also called ICAM-R 72-76
B2: ICAM-R domain 3 peptide, residues 271-276 (peptide)
peptide: GERREA
notes: also called ICAM-R 271-276
B3: ICAM-1/IgG chimera (Fc fusion, UniProt P05362 28-480, looked up, not shown: a dimerising Fc or GST)
chain: QTSVSPSKVILPRGGSVLVTCSTSCDQPKLLGIETPLPKKELLLPGNNRKVYELSNVQEDSQPMCYSNCPDGQSTAKTFLTVYWTPERVELAPLPSWQPVGKNLTLRCQVEGGAPRANLTVVLLRGEKELKREPAVGEPAEVTTTVLVRRDHHGANFSCRTELDLRPQGLELFENTSAPYQLQTFVLPATPPQLVSPRVLEVDTQGTVVCSLDGLFPVSEAQVHLALGDQRLNPTVTYGNDSFSAKASVSVTAEDEGTQRLTCAVILGNQSQETLQTVTIYSFPAPNVILTKPEVSEGTEVTVKCEAHPRAKVTLNGVPAQPLGPRAQLLLKATPEDNGRSFSCSATLEVAGQLIHKNQTRELRVLYGPRLDERDCPGNWTWPENSQQTPMCQAWGNPLPELKCLKDGTFPLPIGESVTVTRDLEGTYLCRARSTQGEVTRKVTVNVLSPRYE
notes: also called ICAM-1/Ig fusion protein
B4: ICAM-1 domain 3 peptide GDQRL, residues 228-232 (peptide)
peptide: GDQRL
notes: also called ICAM-1 228-232
B5: ICAM-R domain 1 peptide, residues 32-38 (peptide)
peptide: EKIALET
notes: also called ICAM-R 32-38
B6: ICAM-1 domain 1 peptide DGQST, residues 70-74 (peptide)
peptide: DGQST
notes: also called ICAM-1 70-74
B7: ICAM-R/IgG chimera with domain 3 deleted (Fc fusion)
chain: QEFLLRVEPQNPVLSAGGSLFVNCSTDCPSSEKIALETSLSKELVASGMGWAAFNLSNVTGNSRILCSVYCNGSQITGSSNITVYGLPERVELAPLPPWQPVGQNFTLRCQVEGGSPRTSLTVVLLRWEEELSRQPAVEEPAEVTATVLASRDDHGAPFSCRTELDMQPQGLGLFVNTSAPRQLRTFLGPIVNLSEPTAHEGSTVTVSCMAGARVQVTLDGVPAAAPGQTAQLQLNATESDDGRSFFCSATLEVDGEFLHRNSSVQLRVLYGPKIDRATCPQHLKWKDKTRHVLQCQARGNPYPELRCLKEGSSREVPVGIPFFVNVTHNGTYQCQASSSRGKYTLVVVMDIEAFSSH
notes: also called domain 3 deletion chimera; not shown: human IgG1 hinge, CH2 and CH3
B8: ICAM-R domain 3 peptide GDQML, residues 230-234 (peptide)
peptide: GDQML
notes: also called ICAM-R 230-234

Key:
[1] = molecular target: CD18-independent counter-receptor for ICAM-R on Jurkat cells; assay: Jurkat cell adhesion to plate-bound shICAM-R, peptide 1-2 mg/ml
[2] = molecular target: T1, VLA-4 (alpha4/beta1) on cells (UniProt P13612 34-1032; P05556 21-798, limits assumed); assay: adhesion of transfected COS cells to immobilized chimera (20 ug/ml coat)
T1 construct: whole, on cells; On Jurkat cells, T cells and COS cells transfected with alpha4 and beta1 cDNAs; also called α4/β1; α4β1

[3] = molecular target: T2, LFA-1 (CD11a/CD18) on cells (human, UniProt P20701 26-1170; P05107 23-769); assay: JY cell adhesion to plate-bound chimera
T2 construct: whole, on cells; On SKW3, JY, HL-60 cells, neutrophils and transfected CHO and COS cells; also called CD18/CD11a
T2 sequence (P20701 26-1170, chain 1 of 2): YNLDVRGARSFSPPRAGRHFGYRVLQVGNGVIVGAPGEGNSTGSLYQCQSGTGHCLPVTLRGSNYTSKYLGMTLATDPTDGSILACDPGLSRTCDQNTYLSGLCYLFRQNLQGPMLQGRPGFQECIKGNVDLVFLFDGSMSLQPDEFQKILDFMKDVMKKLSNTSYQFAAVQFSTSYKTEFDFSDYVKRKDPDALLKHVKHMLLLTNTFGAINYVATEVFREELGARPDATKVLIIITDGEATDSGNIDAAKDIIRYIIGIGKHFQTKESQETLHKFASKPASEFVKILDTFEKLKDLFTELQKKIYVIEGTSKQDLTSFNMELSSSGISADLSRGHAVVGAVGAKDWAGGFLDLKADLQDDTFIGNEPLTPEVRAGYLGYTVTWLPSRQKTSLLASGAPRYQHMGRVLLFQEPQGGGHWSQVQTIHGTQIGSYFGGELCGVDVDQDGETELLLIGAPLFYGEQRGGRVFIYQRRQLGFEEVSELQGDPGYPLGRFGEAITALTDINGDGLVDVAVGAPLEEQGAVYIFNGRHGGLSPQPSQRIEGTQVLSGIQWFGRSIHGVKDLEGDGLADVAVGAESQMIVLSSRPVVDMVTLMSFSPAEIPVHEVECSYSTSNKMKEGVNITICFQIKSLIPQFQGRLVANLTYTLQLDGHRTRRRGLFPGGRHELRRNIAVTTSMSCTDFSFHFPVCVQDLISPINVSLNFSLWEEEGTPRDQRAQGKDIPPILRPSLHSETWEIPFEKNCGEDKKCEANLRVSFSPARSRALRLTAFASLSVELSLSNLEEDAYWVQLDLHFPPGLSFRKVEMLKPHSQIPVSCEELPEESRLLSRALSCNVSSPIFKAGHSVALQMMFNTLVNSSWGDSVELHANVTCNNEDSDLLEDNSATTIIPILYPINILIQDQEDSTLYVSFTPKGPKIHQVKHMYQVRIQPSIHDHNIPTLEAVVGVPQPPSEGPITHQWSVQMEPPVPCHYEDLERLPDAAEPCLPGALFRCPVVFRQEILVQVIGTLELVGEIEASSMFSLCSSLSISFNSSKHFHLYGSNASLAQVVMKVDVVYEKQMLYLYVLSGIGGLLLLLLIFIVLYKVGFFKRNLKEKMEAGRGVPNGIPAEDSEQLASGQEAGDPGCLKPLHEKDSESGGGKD
T2 sequence (P05107 23-769, chain 2 of 2): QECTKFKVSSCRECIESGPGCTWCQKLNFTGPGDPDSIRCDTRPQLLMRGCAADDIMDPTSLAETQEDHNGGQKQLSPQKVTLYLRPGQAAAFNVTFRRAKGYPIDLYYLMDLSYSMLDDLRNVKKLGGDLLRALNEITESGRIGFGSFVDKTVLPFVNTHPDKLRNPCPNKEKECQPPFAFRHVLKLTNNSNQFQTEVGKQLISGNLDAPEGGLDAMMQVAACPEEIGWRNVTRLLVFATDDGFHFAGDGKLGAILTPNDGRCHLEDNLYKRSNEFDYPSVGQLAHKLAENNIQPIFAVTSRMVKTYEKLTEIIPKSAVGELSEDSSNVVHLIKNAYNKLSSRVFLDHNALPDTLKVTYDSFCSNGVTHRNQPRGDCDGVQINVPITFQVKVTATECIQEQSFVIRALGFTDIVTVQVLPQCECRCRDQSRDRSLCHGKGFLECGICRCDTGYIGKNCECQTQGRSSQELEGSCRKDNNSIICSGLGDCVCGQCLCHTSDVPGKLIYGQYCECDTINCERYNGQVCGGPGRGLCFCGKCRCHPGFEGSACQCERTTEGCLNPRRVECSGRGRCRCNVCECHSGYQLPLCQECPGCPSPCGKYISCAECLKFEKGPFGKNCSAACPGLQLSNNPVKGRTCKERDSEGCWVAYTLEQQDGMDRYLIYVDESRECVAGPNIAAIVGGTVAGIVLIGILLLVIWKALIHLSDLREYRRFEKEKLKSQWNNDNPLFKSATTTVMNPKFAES

Row | Binder | % Inhibition of cell binding to shICAM-R [1] [%] | also measured
1 | B1 | 17 | –
2 | B2 | 11 | –
3 | B3 | – | binding result [2]: no binding
4 | B4 | 22 | –
5 | B5 | 10 | –
6 | B6 | 9 | –
7 | B7 | – | binding result [3]: binds
8 | B8 | 36 | –
